Read-outs that look alike come from different tables or passages of the source.
Columns and labels:
Assay in all cases: two-hybrid library CCmax;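 further: natural log of median RNA to DNA barcode read ratio; higher means stronger binding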
[1] = target: T1, 4H32-AA; settings: mean of both orientations
T1 chain: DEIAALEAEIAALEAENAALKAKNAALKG

[2] = target: T2, 4H1579-AA; settings: mean of both orientations
T2 chain: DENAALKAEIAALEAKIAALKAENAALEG

[3] = target: T3, 4H1388-AA; settings: mean of both orientations
T3 chain: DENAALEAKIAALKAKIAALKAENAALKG

[4] = target: T4, 4H1874-AA; settings: mean of both orientations
T4 chain: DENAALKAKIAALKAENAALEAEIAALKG

[5] = target: T5, 4H1626-AA; settings: mean of both orientations
T5 chain: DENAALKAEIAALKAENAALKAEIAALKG

[6] = target: T6, 4H1629-AA; settings: mean of both orientations
T6 chain: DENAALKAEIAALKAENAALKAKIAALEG

[7] = target: T7, 4H3378-AA; settings: mean of both orientations
T7 chain: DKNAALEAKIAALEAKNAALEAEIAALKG

[8] = target: T8, 4H94-AA; settings: mean of both orientations
T8 chain: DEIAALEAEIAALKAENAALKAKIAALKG

[9] = target: T9, 4H2649-AA; settings: mean of both orientations
T9 chain: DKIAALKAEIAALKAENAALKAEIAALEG

[10] = target: T10, 4H1351-AA; settings: mean of both orientations
T10 chain: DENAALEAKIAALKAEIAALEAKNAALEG

[11] = target: T11, 4H485-AA; settings: mean of both orientations
T11 chain: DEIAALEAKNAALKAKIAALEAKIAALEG

[12] = target: T12, 4H384-AA; settings: mean of both orientations
T12 chain: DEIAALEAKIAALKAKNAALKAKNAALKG

[13] = target: T13, 4H3162-AA; settings: mean of both orientations
T13 chain: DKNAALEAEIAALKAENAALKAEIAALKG

[14] = target: T14, 4H310-AA
T14 chain: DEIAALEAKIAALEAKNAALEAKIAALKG

[15] = target: T15, 4H2162-AA; settings: mean of both orientations
T15 chain: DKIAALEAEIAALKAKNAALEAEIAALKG

[16] = target: T16, 4H3588-AA
T16 chain: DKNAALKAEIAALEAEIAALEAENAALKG

[17] = target: T17, 4H2698-AA; settings: mean of both orientations
T17 chain: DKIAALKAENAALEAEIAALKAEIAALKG

[18] = target: T18, 4H1478-AA; settings: mean of both orientations
T18 chain: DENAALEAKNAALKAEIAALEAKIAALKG

[19] = target: T19, 4H1385-AA
T19 chain: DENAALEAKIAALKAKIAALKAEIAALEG

DENAALEAEIAALKAKNAALEAKIAALKG [4H1142-AA]
interaction score [1]: -1.11
interaction score [2]: -1.39
interaction score [3]: -1.65
interaction score [4]: 0.966
interaction score [5]: -0.818
interaction score [6]: -1.15
interaction score [7]: -0.868
interaction score [8]: -1.72
interaction score [9]: 0.913
interaction score [10]: -1.31
interaction score [11]: -0.612
interaction score [12]: -1.72
interaction score [13]: -1.46
interaction score [14]: -1.4
interaction score [15]: 0.00334
interaction score [16]: -1.17
interaction score [17]: -1.05
interaction score [18]: -0.804
interaction score [19]: -1.1

DENAALEAKIAALEAENAALKAKIAALKG [4H1310-AA]
interaction score [1]: -1.07
interaction score [2]: -1.2
interaction score [3]: -1.2
interaction score [4]: 2.14
interaction score [5]: -0.373
interaction score [6]: -0.348
interaction score [7]: -0.0826
interaction score [8]: -0.926
interaction score [9]: 1.94
interaction score [10]: -1.27
interaction score [11]: -1.08
interaction score [12]: -1.55
interaction score [13]: -0.508
interaction score ([14]; mean of both orientations): -0.748
interaction score [15]: -0.945
interaction score ([16]; mean of both orientations): -1.22
interaction score [17]: -0.391
interaction score [18]: -1.2
interaction score ([19]; mean of both orientations): -1.04

From PMC10397247
